B1: DnaA regulatory inactivator Hda (Escherichia coli (strain K12)), P69931 (parent)
chain: MNTPAQLSLPLYLPDDETFASFWPGDNSSLLAALQNVLRQEHSGYIYLWAREGAGRSHLLHAACAELSQRGDAVGYVPLDKRTWFVPEVLDGMEHLSLVCIDNIECIAGDELWEMAIFDLYNRILESGKTRLLITGDRPPRQLNLGLPDLASRLDWGQIYKLQPLSDEDKLQALQLRARLRGFELPEDVGRFLLKRLDREMRTLFMTLDQLDRASITAQRKLTIPFVKEILKL

Columns and labels:
dpo3b_ecoli dnaN, P0A988 [1] = variants of: B1; conditions: with dpo3b_ecoli dnaN
dpo3b_ecoli dnaN, P0A988 [2] = variants of: B1; conditions: with dpo3b_ecoli dnaN; remark: listed apart in the source

Sequence of dpo3b_ecoli dnaN, P0A988 (P0A988 whole entry): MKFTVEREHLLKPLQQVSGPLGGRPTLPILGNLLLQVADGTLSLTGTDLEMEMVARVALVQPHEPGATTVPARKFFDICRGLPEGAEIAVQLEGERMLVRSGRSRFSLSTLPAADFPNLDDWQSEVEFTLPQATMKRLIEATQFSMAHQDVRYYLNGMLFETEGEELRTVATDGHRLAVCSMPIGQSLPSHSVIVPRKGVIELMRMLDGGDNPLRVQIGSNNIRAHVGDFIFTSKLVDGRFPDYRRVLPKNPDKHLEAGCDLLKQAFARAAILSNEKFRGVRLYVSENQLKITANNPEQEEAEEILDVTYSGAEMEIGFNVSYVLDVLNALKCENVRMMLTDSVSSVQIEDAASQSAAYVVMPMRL

Row | Variant | effect of a mutation on the interaction (dpo3b_ecoli dnaN, P0A988 [1]) | effect of a mutation on the interaction (dpo3b_ecoli dnaN, P0A988 [2])
1 | MNTPAQLSAALYLPDDETFASFWPGDNSSLLAALQNVLRQEHSGYIYLWAREGAGRSHLLHAACAELSQRGDAVGYVPLDKRTWFVPEVLDGMEHLSLVCIDNIECIAGDELWEMAIFDLYNRILESGKTRLLITGDRPPRQLNLGLPDLASRLDWGQIYKLQPLSDEDKLQALQLRARLRGFELPEDVGRFLLKRLDREMRTLFMTLDQLDRASITAQRKLTIPFVKEILKL [L9A;P10A] | decreasing interaction | disrupting interaction
2 | MNTPAQASAPLYLPDDETFASFWPGDNSSLLAALQNVLRQEHSGYIYLWAREGAGRSHLLHAACAELSQRGDAVGYVPLDKRTWFVPEVLDGMEHLSLVCIDNIECIAGDELWEMAIFDLYNRILESGKTRLLITGDRPPRQLNLGLPDLASRLDWGQIYKLQPLSDEDKLQALQLRARLRGFELPEDVGRFLLKRLDREMRTLFMTLDQLDRASITAQRKLTIPFVKEILKL [L7A;L9A] | decreasing interaction | disrupting interaction
